Assays:
CD19 [1] = target: T1, CD19 (UniProt P15391 20-556, limits assumed); assay: flow cytometry on Raji cells
T1 construct: whole, on cells; Raji is a human cell line; also called CD19 on CD19+/CD30- Raji cells
T1 sequence (looked up): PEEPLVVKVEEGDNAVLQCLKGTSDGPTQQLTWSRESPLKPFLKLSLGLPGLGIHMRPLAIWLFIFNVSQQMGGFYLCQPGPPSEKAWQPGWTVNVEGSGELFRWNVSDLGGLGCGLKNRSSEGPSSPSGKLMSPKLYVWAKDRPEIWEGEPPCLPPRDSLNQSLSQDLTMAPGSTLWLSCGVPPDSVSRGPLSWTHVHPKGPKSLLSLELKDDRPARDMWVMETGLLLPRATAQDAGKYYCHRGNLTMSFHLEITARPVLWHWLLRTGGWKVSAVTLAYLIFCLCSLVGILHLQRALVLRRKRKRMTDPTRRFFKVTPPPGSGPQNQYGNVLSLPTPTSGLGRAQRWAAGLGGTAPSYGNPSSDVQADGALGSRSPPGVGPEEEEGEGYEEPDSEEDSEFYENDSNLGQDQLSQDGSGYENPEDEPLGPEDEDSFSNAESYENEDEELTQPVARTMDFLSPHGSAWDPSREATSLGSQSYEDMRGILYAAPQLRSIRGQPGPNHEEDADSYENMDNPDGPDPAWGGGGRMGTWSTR
Protocol: (§1) Single-positive CD19+/CD30− Raji and CD19-/CD30+ KARPAS-299 cells as well as double-positive CD19+/CD30+ MEC-1 were stained with serial dilutions of the trispecific antibody molecules and cell surface bound antibodies were detected by mAb anti-His followed by FITC-conjugated goat anti-mouse IgG. Mean fluorescence intensities determined by flow cytometry were used to calculate KD values by non-linear regression. KD values for trispecific antibody molecules were determined in two independent experiments. […]
(§2) After repeated washing with FACS buffer, cell-bound antibodies were detected with 10 μg/mL anti-His mAb 13/45/31-2 (Dianova, Hamburg, Germany, cat.: DIA910-1MG) followed by 15 μg/mL FITC-conjugated goat anti-mouse antibody (Dianova, cat.: 115-095-062). […] The fluorescence of 2-5×10³ living cells was measured using a Beckman-Coulter FC500 MPL flow cytometer using the MXP software (Beckman-Coulter, Krefeld, Germany) or a Millipore Guava EasyCyte flow cytometer (Merck Millipore, Schwalbach, Germany). Mean fluorescence intensities of the cell samples were calculated using CXP software (Beckman-Coulter) or Incyte software (Merck Millipore, Schwalbach, Germany). […]

CD16A (FcγRIIIA) = target: T2, CD16A (FcγRIIIA) (human, UniProt P08637 17-254); assay: flow cytometry on primary NK cells
T2 construct: whole, on cells; also called CD16A on primary NK cells
Protocol: Aliquots of the indicated cell lines were incubated with […] of serial dilutions of His-tagged antibodies in FACS buffer (PBS, Invitrogen, cat.: 14190-169) containing 2% heat-inactivated FCS (Invitrogen, cat.: 10270-106), 0.1% sodium azide (Roth, Karlsruhe, Germany, cat.: A1430.0100) for 45 min on ice. Staining of NK-cells was performed in FACS buffer supplemented with 1 mg/mL polyclonal human antibody (Gammanorm, Octapharma, Langenfeld, Germany, cat.: PZN-2451445) to block binding of antibodies to Fc[…] receptors.
After repeated washing with FACS buffer, cell-bound antibodies were detected with 10 μg/mL anti-His mAb 13/45/31-2 (Dianova, Hamburg, Germany, cat.: DIA910-1MG) followed by 15 μg/mL FITC-conjugated goat anti-mouse antibody (Dianova, cat.: 115-095-062). The cells were then washed again and resuspended in 0.2 mL of FACS buffer containing 2 μg/mL propidium iodide (PI) (Sigma, cat.: P4170) in order to exclude dead cells. The fluorescence of 2-5×10³ living cells was measured using a Beckman-Coulter FC500 MPL flow cytometer using the MXP software (Beckman-Coulter, Krefeld, Germany) or a Millipore Guava EasyCyte flow cytometer (Merck Millipore, Schwalbach, Germany). Mean fluorescence intensities of the cell samples were calculated using CXP software (Beckman-Coulter) or Incyte software (Merck Millipore, Schwalbach, Germany). After subtracting the fluorescence intensity values of the cells stained with the secondary and tertiary reagents alone, the values were used for analysis using the GraphPad Prism (GraphPad Prism version 6.00 for Windows, GraphPad Software, La Jolla Calif. USA). For the calculation of KD, the equation for one-site-binding (hyperbolic) was used.

CD30 [2] = target: T3, CD30 (UniProt P28908 19-595, limits assumed); assay: flow cytometry on Karpas-299 cells
T3 construct: whole, on cells; also called CD30 on CD19-/CD30+ KARPAS-299 cells
T3 sequence (looked up): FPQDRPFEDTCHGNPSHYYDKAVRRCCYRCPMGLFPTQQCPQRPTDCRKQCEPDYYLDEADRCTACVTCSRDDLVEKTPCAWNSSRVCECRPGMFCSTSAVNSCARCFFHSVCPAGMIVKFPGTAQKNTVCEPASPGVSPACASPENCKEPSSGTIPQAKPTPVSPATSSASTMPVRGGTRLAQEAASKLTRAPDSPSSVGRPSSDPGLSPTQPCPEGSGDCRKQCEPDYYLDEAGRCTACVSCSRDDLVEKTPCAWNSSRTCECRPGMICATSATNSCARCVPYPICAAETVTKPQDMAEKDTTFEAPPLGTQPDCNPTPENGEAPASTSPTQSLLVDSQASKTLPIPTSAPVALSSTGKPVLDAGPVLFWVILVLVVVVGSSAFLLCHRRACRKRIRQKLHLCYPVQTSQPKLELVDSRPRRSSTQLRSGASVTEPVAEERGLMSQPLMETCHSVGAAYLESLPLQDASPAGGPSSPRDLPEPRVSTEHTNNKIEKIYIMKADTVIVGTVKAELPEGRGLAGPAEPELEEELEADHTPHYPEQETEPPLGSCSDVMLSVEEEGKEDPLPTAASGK
Protocol: as §1, §2

CD30 [3] = target: T3, CD30; assay: flow cytometry on KARPAS-299 cells, anti-His detection
Protocol: as §1, §2

CD19 [4] = target: T1, CD19; assay: flow cytometry on Raji cells, anti-His detection
Protocol: as §1, §2

Measured: binding result

T2 sequence (P08637 17-254): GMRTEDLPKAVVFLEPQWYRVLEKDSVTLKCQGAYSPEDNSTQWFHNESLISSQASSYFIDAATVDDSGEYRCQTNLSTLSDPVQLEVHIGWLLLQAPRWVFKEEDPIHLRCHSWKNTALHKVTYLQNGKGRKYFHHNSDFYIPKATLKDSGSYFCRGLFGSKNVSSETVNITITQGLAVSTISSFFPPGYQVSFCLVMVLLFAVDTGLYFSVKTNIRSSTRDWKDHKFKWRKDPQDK

B1: aTriFlex_104 (other)
chain 1: QVQLQQSGAELARPGASVKMSCKASGYTFTTYTIHWVRQRPGHDLEWIGYINPSSGYSDYNQNFKGKTTLTADKSSNTAYMQLNSLTSEDSAVYYCARRADYGNYEYTWFAYWGQGTTVTVSSGGSGGSGGSGGSGGSGGSDIVMTQSPKFMSTSVGDRVTVTCKASQNVGTNVAWFQQKPGQSPKVLIYSASYRYSGVPDRFTGSGSGTDFTLTISNVQSEDLAEYFCQQYHTYPLTFGGGTKLEINGGSGGSGGSSYVLTQPSSVSVAPGQTATISCGGHNIGSKNVHWYQQRPGQSPVLVIYQDNKRPSGIPERFSGSNSGNTATLTISGTQAMDEADYYCQVWDNYSVLFGGGTKLTVLGGSGGSGGSSYVLTQPSSVSVAPGQTATISCGGHNIGSKNVHWYQQRPGQSPVLVIYQDNKRPSGIPERFSGSNSGNTATLTISGTQAMDEADYYCQVWDNYSVLFGGGTKLTVLGGSGGSGGSSYVLTQPPSVSVAPGQTARITCGGNNIGSKTVHWYQQKPGQAPVLVVYDDSDRPSGIPERFSGSNSGNTATLTISRVEAGDEADYYCQVGTDWSDHLQVFGGGTKLTVLGGSGGSGGSGGSGGSGGSGGSEVQLVQSGAEVKKPGESLKISCKGSGYSFTSNWIGWVRQMPGKGLEWMGMIWPGDSDTMYSPSFQGQVTISADESINTAYLQWSSLKASDTAMYYCARRETTTVGRYYYAMDYWGQGTLVTVSSAAAGSDYKDDDDK
chain 2: QVQLVQSGAEVKKPGESLKVSCKASGYTFTSYYMHWVRQAPGQGLEWMGIINPSGGSTSYAQKFQGRVTMTRDTSTSTVYMELSSLRSEDTAVYYCARGSAYYYDFADYWGQGTLVTVSSGGSGGSGGSQVQLVQSGAEVKKPGESLKVSCKASGYTFTSYYMHWVRQAPGQGLEWMGIINPSGGSTSYAQKFQGRVTMTRDTSTSTVYMELSSLRSEDTAVYYCARGSAYYYDFADYWGQGTLVTVSSAAAGSHHHHHH
notes: Tetravalent, trispecific (CD30, CD19, CD16A) Fv antibody without constant domains; heterodimer of two polypeptides; also called antibody molecule d); construct d)
binds: CD19 [1] | CD16A (FcγRIIIA) | CD30 [2]

B2: aTriFlex_101 (other)
chain 1: QVQLQQSGAELARPGASVKMSCKASGYTFTTYTIHWVRQRPGHDLEWIGYINPSSGYSDYNQNFKGKTTLTADKSSNTAYMQLNSLTSEDSAVYYCARRADYGNYEYTWFAYWGQGTTVTVSSGGSGGSGGSGGSGGSGGSDIVMTQSPKFMSTSVGDRVTVTCKASQNVGTNVAWFQQKPGQSPKVLIYSASYRYSGVPDRFTGSGSGTDFTLTISNVQSEDLAEYFCQQYHTYPLTFGGGTKLEINGGSGGSGGSQVQLVQSGAEVKKPGESLKVSCKASGYTFTSYYMHWVRQAPGQGLEWMGIINPSGGSTSYAQKFQGRVTMTRDTSTSTVYMELSSLRSEDTAVYYCARGSAYYYDFADYWGQGTLVTVSSGGSGGSGGSQVQLVQSGAEVKKPGESLKVSCKASGYTFTSYYMHWVRQAPGQGLEWMGIINPSGGSTSYAQKFQGRVTMTRDTSTSTVYMELSSLRSEDTAVYYCARGSAYYYDFADYWGQGTLVTVSSGGSGGSGGSSYVLTQPPSVSVAPGQTARITCGGNNIGSKTVHWYQQKPGQAPVLVVYDDSDRPSGIPERFSGSNSGNTATLTISRVEAGDEADYYCQVGTDWSDHLQVFGGGTKLTVLGGSGGSGGSGGSGGSGGSGGSEVQLVQSGAEVKKPGESLKISCKGSGYSFTSNWIGWVRQMPGKGLEWMGMIWPGDSDTMYSPSFQGQVTISADESINTAYLQWSSLKASDTAMYYCARRETTTVGRYYYAMDYWGQGTLVTVSSAAAGSHHHHHH
chain 2: SYVLTQPSSVSVAPGQTATISCGGHNIGSKNVHWYQQRPGQSPVLVIYQDNKRPSGIPERFSGSNSGNTATLTISGTQAMDEADYYCQVWDNYSVLFGGGTKLTVLGGSGGSGGSSYVLTQPSSVSVAPGQTATISCGGHNIGSKNVHWYQQRPGQSPVLVIYQDNKRPSGIPERFSGSNSGNTATLTISGTQAMDEADYYCQVWDNYSVLFGGGTKLTVLAAAGSDYKDDDDK
notes: Tetravalent, trispecific (CD30, CD19, CD16A) Fv antibody without constant domains; heterodimer of two non-covalently associated polypeptides; also called antibody molecule a); construct a)
binds: CD16A (FcγRIIIA) | CD30 [3] | CD19 [4]

B3: aTriFlex_102 (other)
chain 1: SYVLTQPPSVSVAPGQTARITCGGNNIGSKTVHWYQQKPGQAPVLVVYDDSDRPSGIPERFSGSNSGNTATLTISRVEAGDEADYYCQVGTDWSDHLQVFGGGTKLTVLGGSGGSGGSGGSGGSGGSGGSEVQLVQSGAEVKKPGESLKISCKGSGYSFTSNWIGWVRQMPGKGLEWMGMIWPGDSDTMYSPSFQGQVTISADESINTAYLQWSSLKASDTAMYYCARRETTTVGRYYYAMDYWGQGTLVTVSSGGSGGSGGSQVQLVQSGAEVKKPGESLKVSCKASGYTFTSYYMHWVRQAPGQGLEWMGIINPSGGSTSYAQKFQGRVTMTRDTSTSTVYMELSSLRSEDTAVYYCARGSAYYYDFADYWGQGTLVTVSSGGSGGSGGSQVQLVQSGAEVKKPGESLKVSCKASGYTFTSYYMHWVRQAPGQGLEWMGIINPSGGSTSYAQKFQGRVTMTRDTSTSTVYMELSSLRSEDTAVYYCARGSAYYYDFADYWGQGTLVTVSSGGSGGSGGSQVQLQQSGAELARPGASVKMSCKASGYTFTTYTIHWVRQRPGHDLEWIGYINPSSGYSDYNQNFKGKTTLTADKSSNTAYMQLNSLTSEDSAVYYCARRADYGNYEYTWFAYWGQGTTVTVSSGGSGGSGGSGGSGGSGGSDIVMTQSPKFMSTSVGDRVTVTCKASQNVGTNVAWFQQKPGQSPKVLIYSASYRYSGVPDRFTGSGSGTDFTLTISNVQSEDLAEYFCQQYHTYPLTFGGGTKLEINAAAGSHHHHHH
chain 2: SYVLTQPSSVSVAPGQTATISCGGHNIGSKNVHWYQQRPGQSPVLVIYQDNKRPSGIPERFSGSNSGNTATLTISGTQAMDEADYYCQVWDNYSVLFGGGTKLTVLGGSGGSGGSSYVLTQPSSVSVAPGQTATISCGGHNIGSKNVHWYQQRPGQSPVLVIYQDNKRPSGIPERFSGSNSGNTATLTISGTQAMDEADYYCQVWDNYSVLFGGGTKLTVLAAAGSDYKDDDDK
notes: Tetravalent, trispecific (CD30, CD19, CD16A) Fv antibody without constant domains; heterodimer of two polypeptides; also called antibody molecule b); construct b)
binds: CD16A (FcγRIIIA) | CD30 [3] | CD19 [4]
